Target: the molecule itself
Experiment: cross-linking; purified UppP, room temperature 30 min, 50-fold molar excess DSS or EGS, quenched with 50 mM Tris, 12% SDS-PAGE

B1: Undecaprenyl pyrophosphate phosphatase (UppP) from Escherichia coli (enzyme, Escherichia coli K-12, UniProt P60932 1-273, looked up)
chain: MSDMHSLLIAAILGVVEGLTEFLPVSSTGHMIIVGHLLGFEGDTAKTFEVVIQLGSILAVVVMFWRRLFGLIGIHFGRPLQHEGESKGRLTLIHILLGMIPAVVLGLLFHDTIKSLFNPINVMYALVVGGLLLIAAECLKPKEPRAPGLDDMTYRQAFMIGCFQCLALWPGFSRSGATISGGMLMGVSRYAASEFSFLLAVPMMMGATALDLYKSWGFLTSGDIPMFAVGFITAFVVALIAIKTFLQLIKRISFIPFAIYRFIVAAAVYVVFF
notes: Undecaprenyl pyrophosphate phosphatase (UppP, BacA), Escherichia coli K-12 (ATCC 10798), full length, residues 1-273; Integral membrane protein, in DDM detergent (SEC, cross-linking) or monoolein lipid cubic/sponge phase (crystals); also called EcUppP; BacA; source: E. coli C41, solubilized from membranes in DDM, purified (Ni-NTA, thrombin cleavage, gel filtration); not shown: His6, N-terminal, …
B1 was tested, and the “stoichiometry N” value was 2.

Source: article PMC5861054, “Crystal structure of an intramembranal phosphatase central to bacterial cell-wall peptidoglycan biosynthesis and lipid recycling” (Nature Communications, 2018)
